We go through 1 molecule from paper PMC5788864.

Experiment [1] deals with Zika virus NS5 RNA-dependent polymerase (RdRp) domain, amino acids 275-903, strain FSS13025, HA-tag (Zika virus strain FSS13025). Briefly: co-IP.
Experiment [2] has as its target Zika virus NS5 methyltransferase (MTase) domain, amino acids 1-264, strain FSS13025, HA-tag (Zika virus strain FSS13025). The experiment can be described thus: co-IP.

B1: interferon regulatory factor 3 (IRF3), endogenous (natural protein)
chain: MGTPKPRILPWLVSQLDLGQLEGVAWVNKSRTRFRIPWKHGLRQDAQQEDFGIFQAWAEATGAYVPGRDKPDLPTWKRNFRSALNRKEGLRLAEDRSKDPHDPHKIYEFVNSGVGDFSQPDTSPDTNGGGSTSDTQEDILDELLGNMVLAPLPDPGPPSLAVAPEPCPQPLRSPSLDNPTPFPNLGPSENPLKRLLVPGEEWEFEVTAFYRGRQVFQQTISCPEGLRLVGSEVGDRTLPGWPVTLPDPGMSLTDRGVMSYVRHVLSCLGGGLALWRAGQWLWAQRLGHCHTYWAVSEELLPNSGHGPDGEVPKDKEGGVFDLGPFIVDLITFTEGSGRSPRYALWFCVGESWPQDQPWTKRLVMVKVVPTCLRALVEMARVGGASSLENTVDLHISNSHPLSLTSDQYKAYLQDLVEGMDFQGPGES
Regarding B1, the figures for the percent of the full-length NS5 binding activity to IRF3 in experiment [1] and in experiment [2] were 51% and 82%, respectively.
